{
  "source": "patent US20160116469A1",
  "about": "(INSTITUTE OF ARTHRITIS RESEARCH, published 2016)",
  "molecular_target": "human TLR4 (human, UniProt O00206 24-839)",
  "sequence (O00206 24-839)": "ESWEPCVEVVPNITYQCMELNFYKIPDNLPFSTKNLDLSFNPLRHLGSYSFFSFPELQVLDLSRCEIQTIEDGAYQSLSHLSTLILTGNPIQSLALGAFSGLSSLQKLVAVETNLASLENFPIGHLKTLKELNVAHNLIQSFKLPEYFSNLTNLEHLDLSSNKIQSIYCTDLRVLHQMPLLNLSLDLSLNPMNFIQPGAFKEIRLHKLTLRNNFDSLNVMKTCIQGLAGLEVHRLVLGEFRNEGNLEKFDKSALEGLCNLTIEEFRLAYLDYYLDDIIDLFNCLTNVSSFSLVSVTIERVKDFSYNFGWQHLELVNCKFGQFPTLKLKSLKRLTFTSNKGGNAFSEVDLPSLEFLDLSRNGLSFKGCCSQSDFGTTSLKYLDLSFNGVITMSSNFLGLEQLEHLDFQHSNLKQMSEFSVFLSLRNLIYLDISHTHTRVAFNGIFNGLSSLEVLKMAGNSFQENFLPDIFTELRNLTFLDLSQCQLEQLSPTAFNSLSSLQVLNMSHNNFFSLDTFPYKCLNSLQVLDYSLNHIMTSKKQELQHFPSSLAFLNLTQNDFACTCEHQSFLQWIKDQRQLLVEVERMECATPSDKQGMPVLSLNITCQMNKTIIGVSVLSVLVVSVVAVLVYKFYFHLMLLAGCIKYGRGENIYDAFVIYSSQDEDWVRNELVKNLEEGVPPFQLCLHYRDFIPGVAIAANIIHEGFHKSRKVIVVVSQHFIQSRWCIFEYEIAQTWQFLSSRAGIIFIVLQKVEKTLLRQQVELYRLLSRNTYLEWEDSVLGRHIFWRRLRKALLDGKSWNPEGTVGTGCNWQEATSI",
  "assay": "cell-based or functional assay",
  "data": [
    {"binder": "KSIAYLQMNSLK", "note": "[PeptideX2]", "values": [
      {"measurement": "NF-κB-driven SEAP reporter, human TLR4-transfected HEK293 cells, response relative to E. coli K12 LPS at 100 ng/ml", "value": "10 % of the response to E. coli K12 LPS"}
    ]}
  ]
}
